In one assay the target is HLA-B*15:01. Put plainly: IEDB peptide-MHC binding, purified MHC/direct/fluorescence; filed as Kd, often an IC50 or EC50 that approximates it; ≥ and ≤ were set here for values at or beyond the usual limits of such assays.
Another assay addresses HLA-A*32:01. Briefly: IEDB peptide-MHC binding, purified MHC/competitive/radioactivity; filed as Kd, often an IC50 or EC50 that approximates it; ≥ and ≤ were set here for values at or beyond the usual limits of such assays.
For another assay, the target named is HLA-B*44:02. The assay is described as above.
The target of a further assay is HLA-B*44:03. The assay is described as above.
The target in a further assay is HLA-A*03:01. Put plainly: IEDB peptide-MHC binding, purified MHC/direct/fluorescence; filed as Kd, often an IC50 or EC50 that approximates it; ≥ and ≤ were set here for values at or beyond the usual limits of such assays.
The next assay concerns the target HLA-A*11:01. The description is as above.
The next assay has as its target HLA-A*31:01. The assay is described as above.
For another assay, the target named is HLA-A*26:01. Briefly: IEDB peptide-MHC binding, purified MHC/competitive/radioactivity; filed as Kd, often an IC50 or EC50 that approximates it; ≥ and ≤ were set here for values at or beyond the usual limits of such assays.
The target of a further assay is HLA-A*30:01. The description is as above.
In a further assay the target is HLA-A*30:02. Described as above.
The target in assay [1] is HLA-A*01:01. Described as above.
The target of a further assay is HLA-A*29:02. Described as above.
Assay [2] concerns the target HLA-A*02:01. Put plainly: IEDB peptide-MHC binding, purified MHC/competitive/fluorescence; filed as Kd, often an IC50 or EC50 that approximates it; ≥ and ≤ were set here for values at or beyond the usual limits of such assays.
Assay [3] concerns the target HLA-A*02:01. Briefly: IEDB peptide-MHC binding, purified MHC/direct/fluorescence; filed as Kd, often an IC50 or EC50 that approximates it; ≥ and ≤ were set here for values at or beyond the usual limits of such assays. Particulars: source organism: Bacillus licheniformis.
The target of the next assay is HLA-A*69:01. Described as above. Particulars: source organism: Bacillus licheniformis.
Assay [4] concerns the target HLA-A*01:01. The assay is described as above. Particulars: source organism: Bacillus licheniformis.
Another assay has as its target HLA-A*23:01. Put plainly: IEDB peptide-MHC binding, purified MHC/competitive/radioactivity; filed as Kd, often an IC50 or EC50 that approximates it; ≥ and ≤ were set here for values at or beyond the usual limits of such assays.
A further assay deals with HLA-A*24:02. The description is as above.
The target in the next assay is HLA-B*39:01. Briefly: IEDB peptide-MHC binding, purified MHC/competitive/fluorescence; filed as Kd, often an IC50 or EC50 that approximates it; ≥ and ≤ were set here for values at or beyond the usual limits of such assays. Particulars: source organism: Bacillus anthracis str. A0488.
The mark [5] stands for this setting: source organism: Vaccinia virus WR.
Setting [6] is: source organism: Dengue virus 2 Jamaica/1409/1983.
Where [7] appears, read: source organism: Dengue virus 1 Brazil/97-11/1997.
[8] abbreviates: source organism: Giardia intestinalis.
The mark [9] stands for this setting: source organism: Cryptosporidium parvum.
Where [10] appears, read: source organism: Mammarenavirus brazilense.
[11] abbreviates: source organism: Mammarenavirus guanaritoense.
Setting [12] is: source organism: Bacillus licheniformis.
The mark [13] stands for this setting: source organism: Mammarenavirus juninense.
Setting [14] is: source organism: Mammarenavirus choriomeningitidis.

What is called Kd is the concentration at which binding is half-saturated. Consider TLAAAANSY, for which, in the assay with HLA-B*15:01 (source organism: Mycobacterium tuberculosis C), the dissociation constant (Kd) was 571 nM.

For the sequence KINEVVEIF, in the assay with HLA-A*32:01 (setting [5]), the Kd worked out at 19.3 nM.

As to GERKKLKPRW, the Kd stood at 839 nM in the assay with HLA-B*44:02 (setting [6]) and 1450 nM with HLA-B*44:03 (setting [6]).

For KEVSETQHG, in the assay with HLA-B*44:02 (source organism: Dengue virus 3 Martinique/1243/1999), the Kd turned out to be 6770 nM.

With MEDKTHVSSW, the Kd with HLA-B*44:02 (setting [7]) worked out at 82.3 nM; in the assay with HLA-B*44:03 (setting [7]), 111 nM.

In the case of WRFQGSWNTG, the Kd in the assay with HLA-A*32:01 (setting [7]) is no less than 49000 nM.

Turning to SLRPNDIVY, the results for the Kd in the assay with HLA-A*03:01 (setting [8]), with HLA-B*15:01 (setting [8]) and in the assay with HLA-A*11:01 (setting [8]) were 13600 nM, 150 nM and 7040 nM, respectively.

Take MIRTWRQNK: the dissociation constant (Kd) in the assay with HLA-A*03:01 (setting [9]) came to 226 nM; with HLA-A*31:01 (setting [9]), 364 nM.

For the sequence TEAKMLLDNI, the Kd with HLA-B*44:03 (setting [7]) was 617 nM.

For AGADTSEVHW, the Kd in the assay with HLA-B*44:02 (source organism: Dengue virus 4 Philippines/H241/1956) was determined as 4920 nM.

Turning to GSLLHGLWPY, the Kd with HLA-A*26:01 (setting [10]) is no less than 27300 nM; with HLA-A*30:01 (setting [10]), 102 nM; with HLA-A*30:02 (setting [10]), 40.4 nM; in the assay with HLA-A*32:01 (setting [10]), 1110 nM; with HLA-A*01:01 [1] (setting [10]), 496 nM; with HLA-A*29:02 (setting [10]) it was 401 nM.

For the sequence SVSGTFVAEF, the Kd with HLA-A*26:01 (setting [11]) is 3070 nM; with HLA-A*30:01 (setting [11]), no less than 40000 nM; with HLA-A*30:02 (setting [11]), 7910 nM; in the assay with HLA-A*32:01 (setting [11]), 4410 nM; with HLA-A*01:01 [1] (setting [11]), no less than 45200 nM; in the assay with HLA-A*29:02 (setting [11]), 9060 nM.

Sequence NMKWKFNAL registered a Kd with HLA-A*02:01 [2] (source organism: Campylobacter jejuni subsp. jejuni NCTC 11168 = ATCC 700819) of no less than 20000 nM.

The sequence KLGIGNSPV showed a dissociation constant (Kd) in the assay with HLA-A*02:01 [2] (source organism: Vaccinia virus Copenhagen) of 6 nM.

Regarding ALMEITSRY, the Kd amounted to 259 nM with HLA-A*03:01 (setting [12]); 4810 nM with HLA-A*02:01 [3]; 11700 nM in the assay with HLA-A*69:01; 90.5 nM with HLA-B*15:01 (setting [12]); 1040 nM in the assay with HLA-A*01:01 [4]; 605 nM with HLA-A*11:01 (setting [12]). This sequence also displayed a Kd with HLA-A*31:01 (setting [12]) of 5280 nM.

As to LCLSGDGWPY, the Kd in the assay with HLA-A*26:01 (setting [13]) is no less than 69700 nM; with HLA-A*30:01 (setting [13]) it was no less than 55600 nM; with HLA-A*23:01 (setting [13]), no less than 70000 nM; with HLA-A*24:02 (setting [13]), no less than 70300 nM; in the assay with HLA-A*30:02 (setting [13]), 1460 nM; in the assay with HLA-A*32:01 (setting [13]), 16900 nM. For the same sequence, the Kd came out at 1030 nM in the assay with HLA-A*01:01 [1] (setting [13]) and 148 nM in the assay with HLA-A*29:02 (setting [13]).

For ITHFCSFNI, in the assay with HLA-A*32:01 (setting [5]), the Kd is no less than 20900 nM.

Consider SEIPNLDIIG, for which the equilibrium dissociation constant (Kd) with HLA-B*44:03 (setting [6]) amounted to 1090 nM.

In the assay with HLA-B*39:01, FKWGKKIIL yielded a Kd of 12.6 nM.

Regarding QWFLDLPLPW, the Kd amounted to 11.7 nM with HLA-A*23:01 (setting [6]), 115 nM with HLA-A*24:02 (setting [6]) and 2780 nM with HLA-B*44:03 (setting [6]).

For EIFSMMVSSF, the dissociation constant (Kd) with HLA-A*26:01 (setting [14]) worked out at 3.79 nM; with HLA-A*30:01 (setting [14]), 940 nM; with HLA-A*30:02 (setting [14]), 13200 nM; with HLA-A*32:01 (setting [14]), 1290 nM; in the assay with HLA-A*01:01 [1] (setting [14]), 7590 nM; with HLA-A*29:02 (setting [14]) it was 1370 nM.

In the case of RLENVMWKQI, the Kd in the assay with HLA-A*32:01 (source organism: Dengue virus 4 Dominica/814669/1981) is 1840 nM.

For TLFPGDDDL, in the assay with HLA-A*02:01 [2] (setting [5]), the Kd is 394 nM.

Values taken from the Immune Epitope Database (IEDB).
